Experiments:
[1] = biological target: T1, TNFR2-Fas chimeric receptor (TNFR2-ED and Fas) on mouse embryonic fibroblasts (UniProt P20333 23-257; P25445 191-335); assay: indirect immunofluorescence flow cytometry on transfected mouse embryonic fibroblasts
T1 construct: extracellular domain;domain: cytoplasmic domain; Stably expressed on mouse embryonic fibroblasts
T1 sequence (looked up): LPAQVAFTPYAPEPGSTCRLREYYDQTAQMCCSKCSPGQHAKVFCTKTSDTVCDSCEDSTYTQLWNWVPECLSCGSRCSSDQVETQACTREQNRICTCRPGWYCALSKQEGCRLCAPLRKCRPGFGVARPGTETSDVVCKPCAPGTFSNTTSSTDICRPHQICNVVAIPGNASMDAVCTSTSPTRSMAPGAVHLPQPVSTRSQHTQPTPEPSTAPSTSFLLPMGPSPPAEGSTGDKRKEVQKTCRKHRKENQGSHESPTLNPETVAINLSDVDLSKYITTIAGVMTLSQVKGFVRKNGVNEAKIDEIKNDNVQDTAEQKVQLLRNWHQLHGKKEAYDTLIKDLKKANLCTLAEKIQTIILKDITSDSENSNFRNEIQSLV
Protocol: These transfectants were incubated on ice for two hours with 2.5 μg/ml of IZI-06.1-Fab (A-C, E, white histograms), the TNFR1-specific antibody mAb225 (D and F, white histograms), the TNFR2-specific antibody 80M2 (B, white+bold histogram) or were only treated with secondary antibodies as control (gray histograms). The incubation buffer was PBA (PBS+0.05% bovine serum albumin+0.02% NaN3). Cells were incubated with FITC-labeled secondary antibodies (80M2 and mAb225: Goat anti-murine IgG; IZI-06.1 Fab: Goat anti-HIS-tag) and cells were analyzed by flow cytometry. Cells were gated for viable cells and total fluorescence intensities (MnX) are given for each antibody. (Con=control values).
A His-tag positive IZI-06.1-Fab is used to determine specificity of TNFR1 binding or TNFR1-Fas binding, respectively as well as for characterization of the epitope recognized by the antibody derivative. […] This construct, however, is readily detected by another TNFR1-specific mab, mab225 (FIG. 7D).

[2] = biological target: T2, TNFR1-Fas chimeric receptor (extracellular domain of TNFR1 and cytoplasmic domain of death receptor Fas) on … (human, UniProt P19438 30-211; P25445 191-335); assay: saturation binding of 125I-labelled Fab to TNFR1-Fas positive mouse fibroblasts on ice, one-site hyperbola and Scatchard plot
T2 construct: extracellular domain;domain: cytoplasmic domain; Stably expressed on mouse embryonic fibroblasts; also called TNFR1-Fas chimera
T2 sequence (looked up): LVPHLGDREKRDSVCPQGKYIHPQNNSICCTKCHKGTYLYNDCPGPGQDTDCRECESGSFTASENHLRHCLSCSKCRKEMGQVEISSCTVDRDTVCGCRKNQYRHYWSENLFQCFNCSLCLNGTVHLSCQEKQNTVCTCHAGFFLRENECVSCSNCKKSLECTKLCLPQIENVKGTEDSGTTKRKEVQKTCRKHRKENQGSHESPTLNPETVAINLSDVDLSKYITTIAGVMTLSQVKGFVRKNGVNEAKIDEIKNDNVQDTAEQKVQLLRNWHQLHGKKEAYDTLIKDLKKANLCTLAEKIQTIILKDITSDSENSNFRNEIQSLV
Protocol: Nonspecific binding has been subtracted.
To determine the affinity (KD value) of IZI-06.1 Fab, 200.000 TNFR1-Fas positive cells are incubated on ice for three hours with increasing concentrations of labelled IZI-06.1 (2.5-50 ng in a total volume of 150 μl). As binding buffer, phosphate buffered saline+2% fetal calf serum+0.02% NaN₃ is used. Non-specific binding is determined by co-incubating cells with the 180-fold respective concentration of unlabelled IZI-06.1. Bound ¹²⁵I-Fab is determined with a gamma-counter and resulting data is used to fit a one-site binding hyperbola that contains the saturation binding constant KD: […]

B1: IZI-06.1 Fab (Fab, V domains shown)
VH: QVQLVQSGAEVKKPGSSVKVSCKASGYTFTDFYINWVRQAPGQGLEWIGEIYPYSGHAYYNEKFKARVTITADKSTSTAYMELSSLRSEDTAVYYCARWDFLDYWGQGTTVTVSS
VL: DIVMTQSPLSLPVTPGEPASISCRSSQSLLHSNGNTYLHWYLQKPGQSPQLLIYTVSNRFSGVPDRFSGSGSGTDFTLKISRVEAEDVGVYYCSQSTHVPYTFGGGTKVEIKR
modifications: 125I-labelled (chloramine T method) in the saturation binding study
notes: Fab expressed in the E. coli periplasm; the pelB leader is removed; also called humanized H398-Fab; Fab IZI-06.1; not shown: CH1 domain of the human immunoglobulin gamma1 heavy chain
binding result [1]: no binding (tested: 2.5 µg/ml)
Kd [2]: 0.778 nM

— US20100150916A1 (UNIVERSITAET STUTTGART, published 2010)
